According to article PMC8539749 (Viruses, 2021):
Values joined by “and” are separate entries in the source; they are usually repeats but may differ in a detail not shown here. Equal entries are not always repeated. No end group written: not given here.

Molecular target: Recombinant Gn (residues 21–452) of the SFTSV membrane glycoprotein polyprotein (severe fever with thrombocytopenia syndrome virus)
Experiment: ELISA

For KKRGFGS (not fully specified) [Biotinylated HKU-P1], the binding affinity was 700 µg/mL and the signal over background at 250 µg/mL (fold) was 2 fold and 3 fold.
